Paper PMC4558169, “Anchoring of both PKA-RIIα and 14-3-3θ regulates retinoic acid induced 16 mediated phosphorylation of heat shock protein 70” (Oncotarget, 2015)
Values belong to the molecule of their own block, whether it stands above or below them.

Assays:
14-3-3θ = 14-3-3θ (UniProt P27348); experiment: anti-Flag co-IP, 14-3-3θ blot; details: reference: wild type; sites S325
[1] = target: T1, Flag-tagged retinoic acid induced 16 (RAI16), full length (UniProt Q86V87 1-743); experiment: co-IP; Flag-tagged RAI16 or its mutants expressed in HEK293T cells, alone or with Ha-tagged PKA-RIIα; anti-Flag immunoprecipitation, endogenous 14-3-3θ detected with anti-14-3-3θ antibody; cells untreated, treated with forskolin or with forskolin + PKImyr; details: partners not purified
T1 construct: 743 residues by the printed fragment limits; also called Flag-RAI16; Fam160B2; source: HEK293T, transfected (pcDNA3.1), in lysate
T1 sequence (Q86V87 whole entry, the tested form may be a part): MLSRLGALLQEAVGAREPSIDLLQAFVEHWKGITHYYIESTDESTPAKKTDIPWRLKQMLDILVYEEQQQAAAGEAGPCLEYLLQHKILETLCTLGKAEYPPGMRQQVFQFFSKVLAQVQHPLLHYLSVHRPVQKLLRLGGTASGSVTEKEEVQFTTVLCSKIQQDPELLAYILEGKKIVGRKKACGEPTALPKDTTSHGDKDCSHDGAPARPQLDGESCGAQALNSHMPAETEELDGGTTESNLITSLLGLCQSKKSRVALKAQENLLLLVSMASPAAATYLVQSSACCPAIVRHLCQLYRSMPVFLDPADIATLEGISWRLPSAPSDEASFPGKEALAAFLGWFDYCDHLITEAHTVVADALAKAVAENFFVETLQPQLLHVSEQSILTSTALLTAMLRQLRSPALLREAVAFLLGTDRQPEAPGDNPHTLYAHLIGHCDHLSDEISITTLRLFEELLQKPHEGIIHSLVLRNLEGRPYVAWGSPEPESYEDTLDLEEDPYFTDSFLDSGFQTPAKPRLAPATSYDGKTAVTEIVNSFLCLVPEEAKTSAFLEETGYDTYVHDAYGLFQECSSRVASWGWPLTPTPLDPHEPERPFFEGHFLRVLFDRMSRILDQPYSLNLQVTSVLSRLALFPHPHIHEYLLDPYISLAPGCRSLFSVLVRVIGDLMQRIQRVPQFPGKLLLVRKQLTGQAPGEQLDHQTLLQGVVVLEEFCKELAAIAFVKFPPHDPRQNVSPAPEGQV

binding against the reference (14-3-3θ): lost
Molecule: RAI16 (retinoic acid induced 16) (from UniProt Q86V87) S325A

fold change of co-precipitated 14-3-3θ with forskolin against untreated cells [1]: 3.25 fold
B1: endogenous 14-3-3θ (natural protein, human (endogenous in HEK293T), UniProt P27348 1-245, looked up)
chain: MEKTELIQKAKLAEQAERYDDMATCMKAVTEQGAELSNEERNLLSVAYKNVVGGRRSAWRVISSIEQKTDTSDKKLQLIKDYREKVESELRSICTTVLELLDKYLIANATNPESKVFYLKMKGDYFRYLAEVACGDDRKQTIDNSQGAYQEAFDISKKEMQPTHPIRLGLALNFSVFYYEILNNPELACTLAKTAFDEAIAELDTLNEDSYKDSTLIMQLLRDNLTLWTSDSAGEECDAAEGAEN
notes: 14-3-3 protein theta, endogenous in HEK293T cells; source: endogenous, HEK293T lysate
